# Test results taken from the nanobody polyreactivity screen of Harvey et al. (2022).
# Assay: yeast display, Sf9 membrane polyspecificity reagent, FACS + sequencing; frameworks hold sequencing errors
# Procedure, shortened: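 A synthetic nanobody library was expressed on Saccharomyces cerevisiae BJ5465 by galactose induction for 36–48 hours. The library was stained for 1 hour at 4 °C with 10% biotinylated, detergent-solubilized Sf9 membrane reagent and enriched with streptavidin microbeads before FACS. Low and high (top ~1%) gates were set on anti-HA fluorescence for expression and streptavidin fluorescence for reagent binding, and each polyreactivity label reflects the gate of origin.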
row,Sequence,polyreactivity (PSR sort gate)
1,QVQLVESGGCLVQAGGSLRLSCAASGITLRYYAMGWYRQAPGKERELDAAISSGGRTYYADSVKGRFTISRDNATKTVYLPLNSLKPEETAVYYCNVVWSVTYDYWGHGTQVTVSS,high polyreactivity
2,QVQLVESGGGLVQAGGSLRLSCAASGRTFYLYAMGWYRQAPGKEREFVAAISWSTGSTYYADSVKGRFTISRDNAKNTVYLQMNSLKPEDTAVYYCAASTFTGYPKMYYWGQGTQVTVSS,high polyreactivity
3,QVQLVESGGGLVQAGGSLRLSCAASGRTFMKNTMGWYIQAPGKERELVAVITRNGDSTYADSVKGRFTISRDNAKNTVYLQKNSLKPEDTAVFYCNVGSYRYRRYDYWGQGTQVTVSS,high polyreactivity
4,QVQLVESGGGLVQAGGSLRLSCAASGLTFSYYAMGWYRQAPGKERELVAAITRSGTRTYYADSVKGRFTISRDNAKNTVYLQMNSLKPVDTAVYYCARYLRGDFQQGEHWGQGTQVTVSS,high polyreactivity
5,QVQLVESGGGLVQAGGSLRLSCAASGSTFPGYAMGWYRQAPGKERELVAAITTSGGSTYYADSVKGRFTISRDNAKNTVYLQMNSLKPEDTAVYYCAADYWYYLDAGYYWGQGTQVTVSS,low polyreactivity
6,QVQLVESGGGLVQPGGSLRLSCAASGSIVKSYAMGWYRQAPGKERELVAAITWRSGRTYYADSVKGRFTISRDNAKNTVYLQMNSLKPEDTAVYYCAADDTSYYIYSYDYWGQGTQVTVSS,low polyreactivity
7,QVQLVESGGGLVQAGGSLRLSCAASGSIFGKYAMGWYRQAPGKERELVAAISERTGRTYYADSVKGRFTISRDNAKNTVYLQMNSLKPEDTAVYYCNVGPLYSGWSTYGYDYWGQGTQVTVSS,high polyreactivity
8,QVQLVESGGGLVQAGGSLRLTCAASGLTFPVYAKGWYRQAPGKEREFVAAISYSAGRTYYADSVKGRFTISRDNAKNTVYLQMNRLKPEDTAVYYCAAATYYSIYDYWGQGTQVTVSS,high polyreactivity
9,QVQLVESGGGLVQAGGSLRLSCAASGRTFHPYAMGWYRQAPGKERELVAAITISTNYADSVKGRFTISRDNAKNTVYLQMNSLKPEDTAVYYCNKDGTHEVYVGGYEDDYWGQGTQVTVSS,low polyreactivity
10,QVQLVESGGGLVQAGGSLRLSCAASGITSYGYAMGWYIQAPGKERELVAAISRSGGTTYYADSVKGRFTISRDNAKNTVYLQMNSLKPEDTAVYYCALGKSHRGGGVSKFNYWGQGTQVTVSS,low polyreactivity
11,QVQLVESGGGLVQAVGSLRLSCAASGSTFGRNAMGWYRQAPGKERELVAAISWSASRTYYADSVKGRFTISRDNAKNTVYLQMNSLKPEDTAVYFCAAEYDVGYFGYEYWGQGTQVTVSS,high polyreactivity
12,QVQLVESGGGLVQAGGSLRLSCAASGMFGLNAMGWYRQAPGKERELVAAIRWTGSSTYYADSVKGRFTISRDNAKNTVYLQMNSLKPEDTADYYCAADFYVWGIWMEYWGQGTQVTVSS,high polyreactivity
13,QLQLGESGGGLVQAGGSLRLSCAGSGSIFNYYAMGWYRQATGKERELVAAITSGGSTYYADSVKGRFTISRDNAKNTVYLQMNSLKPEDTAVYYCNKAFPYIYEYWGQGTQVTVSS,low polyreactivity
14,QVQLVESGGGFVQAGGSLRLSCAASGGIFGSYAIGWYRQAPGKERELVADITQSGGRTRNADSVKGRFTSSRDNAKNTVYLQKNSLKPEDTALYYCNAQDVDSGDDYDYWGQGTQVTVSS,low polyreactivity
15,QVQLVDSGGGLVQAGGSLRLSSAASGFTFVAYAMGGYRQAPGKERELVATITKGGGGTYYADSVKGRFTISRDNAKNTVYLQMNSLKPEDTAVYYCAADRQYRGRTRYVYAPLYYWGHGTQVTVSS,high polyreactivity
16,QVQIVESGGGLVQAGGSLRLSCAASGRIFYKNAMGWYRQAPGKERELVAAISNVGSTYYADSVKGRFTISRDNAKTTVYLQMNSLKPEDTAVYYCNKRIYHLFTYDFWGQGTQVTVSS,high polyreactivity
17,QVQHVESGGGLVQAGGSLRLSCAASGFIFWYYTMGWYRQAPGKVRELLATISGGGSTYYADSVKGRFTISRDNAKNTVYLQMNSLKPEDTAVYYCNAVIRTRRVGYGDGVDYWGQGTQVTVSS,high polyreactivity
